According to article PMC3664666 (Science signaling, 2012):
Numbering of substitutions follows the chain as printed. In names and notes the source's numbering stands.

B1: FhaA FHA domain Q461A (domain or fragment)
chain: PQGGGYAEPAGRDYDYGQSGAPDYGQPAPGGYSGYGQGGYGSAGTSVTLQLDDGSGRTYQLREGSNIIGRGADAQFRLPDTGVSRRHLEIRWDGQVALLADLNSTNGTTVNNAPVQEWQLADGDVIRLGHSEIIVR
B2: FhaA FHA domain R459A (domain or fragment)
chain: B1 chain with R70A, A72Q
B3: FhaA FHA domain R474A (domain or fragment)
chain: B1 chain with A72Q, R85A

Molecular target: T1, phosphorylated Mt-MviN KHD 681-963 (M. tuberculosis, UniProt P9WJK2 681-963, phosphothreonine at 947)
T1 sequence: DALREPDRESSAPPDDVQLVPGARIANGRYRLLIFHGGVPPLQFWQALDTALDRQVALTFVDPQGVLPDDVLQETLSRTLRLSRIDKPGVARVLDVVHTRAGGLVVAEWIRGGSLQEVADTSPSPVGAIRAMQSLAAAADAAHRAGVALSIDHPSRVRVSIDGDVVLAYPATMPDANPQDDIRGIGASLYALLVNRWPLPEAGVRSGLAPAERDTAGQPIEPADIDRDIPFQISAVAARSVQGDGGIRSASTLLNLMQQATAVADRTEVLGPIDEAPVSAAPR
Test: ITC

Binder	binding result	fold reduction of the binding affinity against the wild type
B1	binds	
B2		> 170 fold
B3		41 fold
